Test results reported in paper PMC11180205, “Single-molecule reconstruction of eukaryotic factor-dependent transcription termination” (Nature Communications, 2024).

Substrate: Nc1ncnc2c1ncn2[C@@H]1O[C@H](COP(=O)(O)OP(=O)(O)OP(=O)(O)O)[C@@H](O)[C@H]1O
Experiment: single-molecule fluorescence (FRET / SNAP649 dwell time), Michaelis-Menten fit of k1 versus ATP
Format: biochemical, Saccharomyces cerevisiae
Conditions: k1 step: ATP-dependent translocation on nascent RNA to stalled Pol II TEC (bioPol II/RNA-Cy3/DNA or Pol II/RNA-Cy3/bioDNA, 28 bp transcription unit); 10 nM Sen1 HD-SNAP649, 2 nM TFIIS, UTP and CTP, 20; pH 8.0

B1: Sen1 HD-SNAP649 (Sen1 helicase domain) (Saccharomyces cerevisiae S288C) (protein)
chain: AELAKQELEHMRKRLNVDMNPLYEIILQWDYTRNSEYPDDEPIGNYSDVKDFFNSPADYQKVMKPLLLLESWQGLCSSRDREDYKPFSIIVGNRTAVSDFYDVYASVAKQVIQDCGISESDLIVMAYLPDFRPDKRLSSDDFKKAQHTCLAKVRTLKNTKGGNVDVTLRIHRNHSFSKFLTLRSEIYCVKVMQMTTIEREYSTLEGLEYYDLVGQILQAKPSPPVNVDAAEIETVKKSYKLNTSQAEAIVNSVSKEGFSLIQGPPGTGKTKTILGIIGYFLSTKNASSSNVIKVPLEKNSSNTEQLLKKQKILICAPSNAAVDEICLRLKSGVYDKQGHQFKPQLVRVGRSDVVNVAIKDLTLEELVDKRIGERNYEIRTDPELERKFNNAVTKRRELRGKLDSESGNPESPMSTEDISKLQLKIRELSKIINELGRDRDEMREKNSVNYRNRDLDRRNAQAHILAVSDIICSTLSGSAHDVLATMGIKFDTVIIDEACQCTELSSIIPLRYGGKRCIMVGDPNQLPPTVLSGAASNFKYNQSLFVRMEKNSSPYLLDVQYRMHPSISKFPSSEFYQGRLKDGPGMDILNKRPWHQLEPLAPYKFFDIISGRQEQNAKTMSYTNMEEIRVAIELVDYLFRKFDNKIDFTGKIGIISPYREQMQKMRKEFARYFGGMINKSIDFNTIDGFQGQEKEIILISCVRADDTKSSVGFLKDFRRMNVALTRAKTSIWVLGHQRSLAKSKLWRDLIEDAKDRSCLAYACSGFLDPRNNRAQSILRKFNVPVPSEQEDDYKLPMEYITQGPDEVKSN
notes: helicase domain, residues 1095-1904; C-terminal PreScission site, SNAP-tag and 10xHis-tag kept, labelled with SNAP-Surface 649; expressed in E. coli BL21(DE3) codon plus RIPL; single molecule acts
Protein B1 has a Km of 40 ± 15 µM.
